Results: patent US20150174202A1, “Methods and Compositions for Modulating Beta Cell Proliferation” (The Board of Trustees of the Leland Stanford Junior …, priority 2011, published 2015)
“Also recorded” adds a separate entry of the source.

B1: Wnt3a: purified Wnt3a protein (protein, UniProt P56704 19-352, looked up)
Protein Wnt-3a: SYPIWWSLAVGPQYSSLGSQPILCASIPGLVPKQLRFCRNYVEIMPSVAEGIKIGIQECQHQFRGRRWNCTTVHDSLAIFGPVLDKATRESAFVHAIASAGVAFAVTRSCAEGTAAICGCSSRHQGSPGKGWKWGGCSEDIEFGGMVSREFADARENRPDARSAMNRHNNEAGRQAIASHMHLKCKCHGLSGSCEVKTCWWSQPDFRAIGDFLKDKYDSASEMVVEKHRESRGWVETLRPRYTYFKVPTERDLVYYEASPNFCEPNPETGSFGTRDRTCNVSSHGIDGCDLLCCGRGHNARAERRREKCRCVFHWCCYVSCQECTRVYDVHTCK
B2: prolactin (protein, UniProt P01236 29-227, looked up)
Prolactin: LPICPGGAARCQVTLRDLFDRAVVLSHYIHNLSSEMFSEFDKRYTHGRGFITKAINSCHTSSLATPEDKEQAQQMNQKDFLSLIVSILRSWNEPLYHLVTEVRGMQEAPEAILSKAVEIEEQTKRLLEGMELIVSQVHPETKENEIYPVWSGLPSLQMADEESRLSAYYNLLHCLRRDSHKIDNYLKLLKCRIIHNNNC
notes: mitogen capable of promoting β-cell proliferation

What was measured:
Type in all cases: cell-based
PDGFRα and PDGFRβ = experiment: PDGFR mRNA in cultured adult human islets exposed to Wnt3a or R-Spondin
PDGFRA = experiment: Pdgfra expression in cultured adult mouse islets exposed to Wnt3a or R-Spondin; conditions: isolated adult mouse islets (4-5 months of age) in culture
Excerpt: In diverse tissues, including the pancreas, Wnt signaling activates expression of Axin2, a negative regulator of the pathway. […] This spatially and temporally restricted expression pattern is reminiscent of declining Pdgfra, Pdgfrab, and Ezh2 levels and β-cell proliferation in animals (FIG. 22B-D, Chen et al 2009, 2011). Likewise, in mice harboring a ‘Top-Gal’ synthetic reporter gene of Wnt signaling activity, β-galactosidase reporter expression declines in islet β-cells with age (FIG. 22E-G). Thus, changes in Wnt signaling underlie age-dependent reductions of Pdgfr expression and β-cell PDGF signaling competence in β-cells. Consistent with this, culture of isolated adult mouse islets (4-5 months of age) with purified Wnt3a or the Wnt agonist R-Spondin increased Pdgfra mRNA expression. As described above, Pdgfra signaling induced Ezh2 expression in islets. To assess the function of Pdgfra induced by R-Spondin, R-Spondin was added to adult mouse islets, followed by addition of purified PDGF-AA (100 ng/ml), and Ezh2 mRNA levels were then measured.

Ezh2 = experiment: Ezh2/Ezh1 expression in cultured mouse islets (real-time RT-PCR, western blot); conditions: juvenile mouse islets exposed to insulin or prolactin, 2 days
Method: Mouse pancreatic islets were purified as described in Chen et al. (2009) Genes Dev. 23, 975-985 and used immediately for assays described in the text. To study Ezh2 induction in cultured islets exposed to mitogens, freshly isolated islets from 2-3-week old, and 7-12-month old C57BL/6 mice were recovered and equilibrated overnight at 37° C., 5% CO2 in RPMI-1640 medium supplemented with 0.5% fetal bovine serum (FBS), 0.2% bovine albumin (BSA) and 2% penicillin/streptomycin. […] Immunostaining of BrdU and insulin was performed on processed islets, and β-cell proliferation rate was determined by quantifying percentage of insulin+ cells with BrdU+. […] RNA concentration was measured with a RiboGreen RNA quantification assay (Invitrogen). One-step quantitative RT-PCR was performed and analysed using an ABI Prism 7300 detection system (Applied Biosystems) with TaqMan one-step RTPCR Master Mix Reagents and appropriate amounts (10-100 ng) of islet total RNA as the template. We calculated the ratio of mRNA for the gene of interest to the amount of internal control mRNA of peptidylprolyl isomerase A (cyclophilin A, PPIA), and then normalized the ratio for each gene to its median. […]

[1] = adult human islets (mean age >40 years), exposed for two days

Molecule | mRNA levels encoding PDGFRα (PDGFRα and PDGFRβ; [1]) | mRNA levels encoding PDGFRβ (PDGFRα and PDGFRβ; [1]) | dose dependence of induction of PDGFRA and PDGFRB mRNA (PDGFRα and PDGFRβ; cultured adult human islets) | Pdgfra mRNA expression (PDGFRA) | Ezh2 mRNA levels after mitogen exposure (Ezh2)
B1 | increased | increased | depends on the dose | increased | –
B2 | – | – | – | – | did not detectably alter; also recorded: did not induce
